Data from article PMC9456297 (International Journal of Molecular Sciences, 2022).

Columns and labels:
[1] = molecular target: AviTag-238D2 (biotinylated, c-myc-tagged 238D2); experiment: BLI
[2] = molecular target: AviTag-3SM5 (biotinylated, c-myc-tagged 3SM5 VH); experiment: BLI
[3] = molecular target: T1, SNAP-tagged hCXCR4 labelled with Lumi4-Terbium (human, UniProt P61073 1-352, Lumi4-Terbium on the SNAP tag); experiment: AlphaScreen or HTRF; settings: one partner purified
T1 construct: also called SNAP-CXCR4; Terbium-linked SNAP-tagged CXCR4
T1 sequence (P61073 whole entry): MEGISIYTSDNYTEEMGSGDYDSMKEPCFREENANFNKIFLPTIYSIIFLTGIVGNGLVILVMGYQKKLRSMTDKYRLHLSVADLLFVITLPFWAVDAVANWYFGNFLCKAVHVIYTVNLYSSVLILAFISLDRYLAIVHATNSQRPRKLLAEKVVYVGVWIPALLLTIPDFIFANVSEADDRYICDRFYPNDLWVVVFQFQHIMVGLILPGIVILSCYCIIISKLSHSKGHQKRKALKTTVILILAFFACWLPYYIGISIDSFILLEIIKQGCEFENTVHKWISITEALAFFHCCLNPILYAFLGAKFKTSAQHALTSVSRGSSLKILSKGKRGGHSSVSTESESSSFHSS

For “Influenza A H1N1 (A/SOLOMON ISLANDS/3/2006): hemagglutinin H1 as a fusion protein with the neuraminidase N1”, the Kd [1] was 119 nM and the Kd [2] was 236 nM.

B1: 238D2 nanobody (bacterially produced, c-myc- and His-tagged) (VHH)
VHH: EVQLVESGGGLVQTGGSLRLSCAASGFTFSSYAMSWVRQAPGKGLEWVSGIKSSGDSTRYAGSVKGRFTISRDNAKNMLYLQMYSLKPEDTAVYYCAKSRVSRTGLYTYDNRGQGTQVTVSS
notes: also called anti-CXCR4 Nb
Molecule B1 has an IC50 [3] of 58.4 nM.

B2: 4N1H VHH (bacterially produced, c-myc- and His-tagged) (VHH)
VHH: EVQLQESGGGLVQAGASLKLSCAASGRTFSSYAMGWFRQAPGKEREFVAAISRSGGDTKYADSVKGRFAISRDNDKNTVWLRMNSLKPEDTAVYYCAATTYASLSDTYIGEHIYDDWGQGTQVTVSS
notes: also called cAB-F11N
Molecule B2 has an IC50 [3] of 39.8 nM.

B3: 3SM5 VH domain (bacterially produced, c-myc- and His-tagged) (domain or fragment)
VH: MEVQLVQSGAEVKKPGASVKVSCKASGYTFTDYHINWVRQAPGQGLEWMGWIHPNSGDTNYAQKFQGWVTMTRDTAISTAYMEVNGLKSDDTAVYYCARGGLEPRSVDYYYYGMDVWGQGTTVTVSS
notes: also called VH of CH65
In the case of B3, the IC50 [3] is reported as 69.1 nM.
